Assay [1] addresses T1, CCR8 (human, UniProt P51685 1-355).
T1 construct: whole, on cells; also called human CCR8; HEK/CCR8
Description: flow cytometry on receptor-expressing cells.

The target in assay [2] is T2, CCR4 (human, UniProt P51679 1-360).
T2 construct: whole, on cells; also called human CCR4; CCR4 on CEM cells
T2 sequence (looked up): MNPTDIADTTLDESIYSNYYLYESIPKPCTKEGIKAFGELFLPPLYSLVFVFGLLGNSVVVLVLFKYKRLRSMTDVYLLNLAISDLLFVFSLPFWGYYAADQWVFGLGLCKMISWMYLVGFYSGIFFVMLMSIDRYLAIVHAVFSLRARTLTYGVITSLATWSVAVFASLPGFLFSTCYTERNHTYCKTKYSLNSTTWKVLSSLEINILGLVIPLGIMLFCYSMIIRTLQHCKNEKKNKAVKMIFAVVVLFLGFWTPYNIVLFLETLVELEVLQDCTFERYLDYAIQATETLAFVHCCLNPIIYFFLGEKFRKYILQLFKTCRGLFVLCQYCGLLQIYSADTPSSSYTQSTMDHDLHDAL
The assay can be described thus: flow cytometry on CEM cells, anti-EDN antibody detection.

T1 sequence (P51685 whole entry): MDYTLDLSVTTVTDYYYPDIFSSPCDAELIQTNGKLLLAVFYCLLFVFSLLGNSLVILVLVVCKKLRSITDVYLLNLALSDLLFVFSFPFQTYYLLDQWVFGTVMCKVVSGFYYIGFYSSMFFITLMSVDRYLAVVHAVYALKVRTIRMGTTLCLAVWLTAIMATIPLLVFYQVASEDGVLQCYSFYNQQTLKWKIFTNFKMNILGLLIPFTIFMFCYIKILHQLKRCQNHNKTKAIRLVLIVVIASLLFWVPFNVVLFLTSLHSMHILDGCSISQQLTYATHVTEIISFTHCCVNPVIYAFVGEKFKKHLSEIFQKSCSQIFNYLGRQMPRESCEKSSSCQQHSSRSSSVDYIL

B1: eosinophil-derived neurotoxin (EDN) (enzyme, human, UniProt P10153 28-161, looked up)
chain: KPPQFTWAQWFETQHINMTSQQCTNAMQVINNYQRRCKNQNTFLLTTFANVVNVCGNPNMTCPSNKTRKNCHHSGSQVPLIHCNLTTPSPQNISNCRYAQTPANMFYIVACDNRDQRRDPPQYPVVPVHLDRII
notes: Unfused control protein; also called EDN alone; toxin alone
As for B1, the results for the binding result in assay [1] and in assay [2] were “no binding” and “no binding (tested: 50 µg/ml)”, respectively.

(Values after patent US20140341937A1 (US Dept. of Health and Human Services, published 2014).)
